# Source: patent US20260167702A1, “HUMAN BROADLY CRO[…] […] METHODS OF USE THEREOF” (Dana-Farber Cancer Institute, Inc., priority 2021, published 2026)
# Several values for one entry are separate records, joined by “and”; a condition that tells them apart may be missing. Equal values may be shown once. Entries after “also recorded” stand apart in the source; their conditions may differ. Read-outs that look alike come from different tables or passages of the source.
# B1: 3I14: human broadly neutralizing anti-influenza A HA stem mAb from memory B cells; VH SEQ ID NO: 2, VL SEQ ID NO: 4 (antibody, V domains shown)
# VH: QVQLLESGGGVVQPGRSLRLSCAASGFTFSNYGMHWVRQAPGKGLEWVAIISFDGSKKYYANSVKGRSTISRDNSKNTLSLQMNSLGPEDTALYYCAKLPSPYYFDSRFVWVAASAFHFWGQGILVTVSS
# VL: NFMLTQPPSASGTPGQRVTISCSGSSSNIGGNTVHWFQQLPGTAPKLLIYTNSLRPSGVPDRFSGSKSGTSASLAISGLQSEDEADYYCAAWDDSLNGQVFGGGTKLTVL
# B2: 3I14 Fab: Fab of 3I14 used in the binding competition ELISA (antibody, V domains shown)
# VH: B1 VH
# VL: B1 VL
# B3: MHAA4549A: Genentech broadly neutralizing influenza A mAb (antibody, chains of the INN, looked up, V domains shown)
# VH: EVQLVESGGGVVQPGKSLRLSCAASGLTFSSYAVHWVRQAPGKGLEWVTLISYDGANQYYADSVKGRFTISRDNSKNTVYLQMNSLRPEDTAVYYCAVPGPVFGIFPPWSYFDNWGQGILVTVSS
# VL: EIVLTQSPATLSVSPGERATLSCRASQVISHNLAWYQQKPGQAPRLLIYGASTRASGIPARFSGSGSGTDYTLTITSLQSEDFAVYYCQHYSNWPPRLTFGGGTKVEIK
# Columns and labels:
# binding [1] = conditions: read-out: mean Kd H9-HK99
# in_vivo [2] = test system: in_vivo; parameters: species or system BALB/c mice
# in_vivo [3] = test system: in_vivo; parameters: species or system BALB/c mice; remark: listed apart in the source
# cell_based [4] = molecular target: cell_based (Influenza A virus, UniProt C3W5S1)
# cell_based [5] = molecular target: cell_based (Influenza A virus, UniProt P03452)
# Chain of cell_based (Influenza A virus, UniProt P03452) (P03452 344-565): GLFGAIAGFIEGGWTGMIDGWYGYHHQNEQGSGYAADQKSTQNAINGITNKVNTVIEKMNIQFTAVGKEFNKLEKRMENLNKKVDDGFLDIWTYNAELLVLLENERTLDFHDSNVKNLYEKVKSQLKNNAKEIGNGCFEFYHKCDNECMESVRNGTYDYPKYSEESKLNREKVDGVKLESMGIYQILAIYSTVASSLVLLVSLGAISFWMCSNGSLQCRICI
# Chain of cell_based (Influenza A virus, UniProt P03452) (P03452 18-343): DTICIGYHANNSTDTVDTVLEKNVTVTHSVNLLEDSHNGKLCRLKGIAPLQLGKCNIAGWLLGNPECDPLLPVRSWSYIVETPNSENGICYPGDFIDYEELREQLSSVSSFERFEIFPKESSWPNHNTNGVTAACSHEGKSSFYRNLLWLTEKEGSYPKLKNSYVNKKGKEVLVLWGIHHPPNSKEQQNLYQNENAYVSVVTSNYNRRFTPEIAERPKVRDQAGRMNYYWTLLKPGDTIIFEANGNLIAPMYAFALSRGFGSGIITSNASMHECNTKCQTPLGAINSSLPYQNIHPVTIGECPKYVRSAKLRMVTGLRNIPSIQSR
# binding [6] = test system: binding; parameters: species or system influenza A virus
# binding [7] = molecular target: binding; parameters: species or system influenza A virus; conditions: read-out: mean Kd H5-IN05
# in_vivo [8] = test system: in_vivo; parameters: species or system BALB/c mice; remark: listed apart in the source
# cell_based [9] = test system: cell_based; parameters: species or system influenza A virus
# cell_based [10] = test system: T1, cell_based; parameters: species or system influenza A virus
# T1 construct: other: purified scFvFc antibodies; transfected 293T cells; The full length HA genes of ... were cloned into pcDNA3.1 vector and transfected into 293T/17 cells to produce cell surface expressed HA
# cell_based [11] = test system: cell_based
# cell_based [12] = test system: cell_based; parameters: species or system influenza A virus; remark: listed apart in the source
# binding [13] = test system: binding; parameters: species or system influenza A virus; remark: listed apart in the source
# binding [14] = test system: binding; parameters: species or system influenza A virus; remark: listed apart in the source
# cell_based [15] = test system: cell_based; parameters: species or system influenza A virus; remark: listed apart in the source
# binding [16] = test system: binding; parameters: species or system influenza A virus; remark: listed apart in the source
# biochemical_functional = test system: biochemical_functional; parameters: species or system influenza A virus; conditions: pH 8
# in_vivo [17] = test: Influenza ADE study in mice, lung virus load by plaque assay; parameters: species or system BALB/c mice
# Description: Graphs of lung virus load vs dose in 3I14 (left) and 3I14 LALA (right) in an influenza antibody-dependent enhancement study in mice.
# 3I14 LALA avoids antibody-dependent enhancement (ADE).
# binding [18] = test system: binding; parameters: species or system influenza A virus; remark: listed apart in the source
# binding [19] = molecular target: binding (Influenza A virus, UniProt C3W5S1)
# cell_based [20] = test system: cell_based; remark: listed apart in the source
# in_vivo [21] = test system: in_vivo; parameters: species or system BALB/c mice; remark: listed apart in the source
# binding [22] = test system: binding; parameters: species or system influenza A virus; remark: listed apart in the source
# in_vivo [23] = conditions: cited from earlier work
# in_vivo [24] = conditions: oseltamivir combined with up to 8,400 mg antibody; cited from earlier work
molecule,measurement,setting,value
B1,Kd,binding [1],5.23 nM
same,protection against H3N2-BR07,in_vivo [2],80%
same,"protection against H3N2-BR07, over doses",in_vivo [2],60-80%
same,protection against H5N1-VN04,in_vivo [3],60%
same,"protection against H5N1-VN04, over doses",in_vivo [3],20-60%
same,IC50 H1-CA09,cell_based [4],0.225 µg/mL
same,IC50 H1-PR8,cell_based [5],0.413 µg/mL
same,inhibition of binding of 39.29 and F10 to H5-VN04,binding [6],inhibited; also recorded: partially inhibits
same,inhibition of binding of anti-H5 head antibody 2A to H5-VN04,binding [6],did not inhibit; also recorded: does not inhibit
same,Kd,binding [7],1.05 nM
same,"body weight loss, H7N9-AH13 challenge",in_vivo [8],minimal body weight loss
same,"protection from death, H7N9-AH13 challenge",in_vivo [8],fully protected
same,IC50 H5-VN04 pseudovirus,cell_based [9],0.08158 µg/mL
same,binding to cell surface-expressed HAs by flow cytometry,cell_based [10],bound
same,"luciferase response in Jurkat reporter cells (ADCC), H3 targets",cell_based [11],induced a significant luciferase response
same,IC50 H3-BR07 infectious virus,cell_based [12],0.3054 µg/mL
same,affinity for H1 subtypes,binding [13],high affinity
same,binding to HA1 subunit of H3 PE-09,binding [14],did not bind
same,HA1-HA2 dissociation after DTT treatment,cell_based [15],prevented HA1-HA2 dissociation
same,binding to dissociated HA2 mediated by DTT reduction,cell_based [15],did not bind
same,binding to uncleaved HA precursor (HA0) and mature forms (HA),cell_based [15],binds to both uncleaved HA precursor (HA0)
same,inhibition of pH-dependent HA rearrangement,cell_based [15]; pH 4.9,inhibits the pH-dependent HA rearrangement
same,Koff H5-VN04,binding [16],0.000383 s⁻¹ and 0.000387 s⁻¹
same,Kon H5-VN04,binding [16],375000 M⁻¹ s⁻¹ and 327000 M⁻¹ s⁻¹
same,prevention of trypsin cleavage of immature HA0,biochemical_functional,prevented cleavage of immature HA0
same,virus levels in the lungs at high doses,in_vivo [17]; doses ≥5 mg/kg,reduced virus levels
same,"increase of viral titers in lung tissue, 3I14 compared to 3I14 LALA",in_vivo [17]; intermediate low dose levels,~2 fold
same,virus levels in the lungs compared with controls,"in_vivo [17]; intermediate low dose levels, IP 1 hour prior to intranasal challenge, Day 4",~2 fold
same,Koff H3-PE09,binding [18],3.99e-05 s⁻¹
same,Kon H3-PE09,binding [18],152000 M⁻¹ s⁻¹
same,binding to trimeric full-length H3 A/Perth/16/09,binding [18],bound
same,Koff H1-CA09,binding [19],4.87e-05 s⁻¹
same,Kon H1-CA09,binding [19],174000 M⁻¹ s⁻¹
same,Kd,binding [19]; read-out: Kd H1-CA09,0.279 nM
same,"luciferase response in Jurkat reporter cells (ADCC), H5 targets",cell_based [20],"at a lower level than FI6v3, CR9114, 39.29 and F10"
same,"body weight loss, H7N7-NL219 challenge",in_vivo [21],minimal body weight loss
same,"protection from death, H7N7-NL219 challenge",in_vivo [21],fully protected
B2,competition with E730 (anti-HA1 head Ab) for binding to H3-BR07,binding [22],did not compete
same,"competition with anti-stem Abs CR8020, CR9114, FI6(v3) and 39.29 for binding to H3-BR07",binding [22],cross-competed; also recorded: strongly inhibits
B3,viral load,"in_vivo [23]; 1200 mg, listed as MHAA4549A/Gedivumab",increase in viral load
same,viral loads,in_vivo [23]; 400 and 3600 mg,reduction in viral loads
same,O2 or ventilation support,in_vivo [24],required increase in O2 or ventilation support
same,duration of viral shedding,in_vivo [24],increased duration of viral shedding
same,fatality due to any cause,in_vivo [24],higher fatality percentage due to any cause
